Results as given in PMC5662769, “A-ZIP53, a dominant negative reveals the molecular mechanism of heterodimerization between bZIP53, bZIP10 and bZIP25 involved in Arabidopsis seed maturation” (Scientific Reports, 2017).

B1: bZIP39 DNA binding domain and leucine zipper region (V351-L442) (protein)
chain: VEKVVERRQRRMIKNRESAARSRARKQAYTVELEAELNQLKEENAQLKHALAELERKRKQQYFESLKSRAQPKLPKSNGRLRTLMRNPSCPL
B2: bZIP53 DNA binding domain and leucine zipper region (Y18-D116) (domain or fragment, Arabidopsis thaliana, UniProt Q9LZP8 18-116, looked up)
chain: YATVTDERKRKRMISNRESARRSRMRKQKQLGDLINEVTLLKNDNAKITEQVDEASKKYIEMESKNNVLRAQASELTDRLRSLNSVLEMVEEISGQALD
notes: An internal HindIII site of the amplicon was destroyed by site-directed mutagenesis; Measured monomer mass 12957 Da; In the protoplast reporter assays the full-length protein was expressed from a plasmid; also called basic leucine zipper 53; source: E. coli BL21 (DE-3), HPLC purified
B3: bZIP25 DNA binding domain and leucine zipper region (V230-S322) (domain or fragment, Arabidopsis thaliana, UniProt Q9M1G6 230-322, looked up)
chain: VKRARRMLSNRESARRSRRRKQEQMNEFDTQVGQLRAEHSTLINRLSDMNHKYDAAAVDNRILRADIETLRTKVKMAEETVKRVTGVNPLHWS
notes: In the protoplast reporter assays the full-length protein was expressed from a plasmid; source: E. coli BL21 (DE-3), HPLC purified

What was measured:
[1] = CD thermal denaturation; protein alone, 2 µM dimer, ellipticity at 222 nm, heated from 6–85 °C, two-state fit; KD at 25 °C calculated from ΔGDi; dimer to monomers; conditions: other: CD thermal denaturation
[2] = biological target: bZIP10 DNA binding domain and leucine zipper region (V216-S301) (Arabidopsis thaliana); test: native MS; ESI-MS in unbuffered MS grade water, 2 µM homodimer, 4 µM heterodimer mixtures, samples kept at 23 ± 2 °C, ion spray interface temperature switched off, declustering potential 10 V
[3] = biological target: bZIP10 DNA binding domain and leucine zipper region (V216-S301) (Arabidopsis thaliana); test: CD thermal denaturation; protein alone, 2 µM dimer, ellipticity at 222 nm, heated from 6–85 °C, two-state fit; KD at 25 °C calculated from ΔGDi; dimer to monomers
Q9SJN0 = test: as above; conditions: other: CD thermal denaturation
[4] = biological target: T1, bZIP25 DNA binding domain and leucine zipper region (V230-S322) (Arabidopsis thaliana (Mouse-ear cress), UniProt Q9M1G6); test: CD thermal denaturation (222 nm) of equimolar mix versus sum curve, plus ESI-MS; absence of DNA; the paper concludes heterodimerization is DNA-mediated (synergistic reporter activation in protoplasts)
T1 chain: B3 chain

Q9LZP8 = test: CD thermal denaturation; protein alone, 2 µM dimer, ellipticity at 222 nm, heated from 6–85 °C, two-state fit; KD at 25 °C calculated from ΔGDi; dimer to monomers; conditions: other: CD thermal denaturation
[5] = biological target: the molecule itself; test: as above
[6] = biological target: the molecule itself; test: native MS; ESI-MS in unbuffered MS grade water, 2 µM homodimer, 4 µM heterodimer mixtures, samples kept at 23 ± 2 °C, ion spray interface temperature switched off, declustering potential 10 V
Q9M1G6 = test: CD thermal denaturation; protein alone, 2 µM dimer, ellipticity at 222 nm, heated from 6–85 °C, two-state fit; KD at 25 °C calculated from ΔGDi; dimer to monomers; conditions: other: CD thermal denaturation

| Molecule | dH (ΔHm, at Tm) [1] [kcal/mol] | Kd [5] [nM] | stoichiometry N [6] | other results |
| --- | --- | --- | --- | --- |
| bZIP72 DNA binding domain and leucine zipper region (D48-T150) | -57.3 | – | – | – |
| bZIP10 DNA binding domain and leucine zipper region (V216-S301) | -41.1 | – | – | – |
| bZIP10 DNA binding domain and leucine zipper region (V216-S301) (domain or fragment) | – | – | – | stoichiometry N [2]: 2; Kd [3]: 3 nM |
| B1 | – | – | – | dH (ΔHm, at Tm) (Q9SJN0): -43.2 kcal/mol |
| B2 | – | 50 | 2 | binding result [4]: no binding; dH (ΔHm, at Tm) (Q9LZP8): -35.5 kcal/mol |
| B3 | – | 0.05 | 2 | dH (ΔHm, at Tm) (Q9M1G6): -55.3 kcal/mol |
